According to publication PMC10945755 (Proceedings of the National Academy of Sciences of the …, 2024):
Where two headings read alike, the source gives them in different places. One block for each binder: values may come before it.

B6: GABARAP (natural protein)
chain: MKFVYKEEHPFEKRRSEGEKIRKKYPDRVPVIVEKAPKARIGDLDKKKYLVPSDLTVGQFYFLIRKRIHLRAEDALFFFVNNVIPPTSATMGQLYQEHHEEDFFLYIAYSDESVYGL

Key:
[1] = biological target: the molecule itself; assay: AUC
[2] = biological target: TAX1BP1(1-121) (UniProt Q86VP1 1-121, 15N-labeled in the NMR titrations); assay: ITC
[3] = biological target: T1, TAX1BP1(1-237) (UniProt Q86VP1 1-237, labeled (label not named) in the spectral shift binding assay); assay: spectral shift binding assay
[4] = biological target: T1, TAX1BP1(1-237); assay: SEC
[5] = biological target: T1, TAX1BP1(1-237); assay: SEC; remark: listed apart in the source
[6] = biological target: T2, Trx-TAX1BP1(1-237) (UniProt Q86VP1 1-237); assay: AUC
[7] = biological target: Nano-RB1CC1(1286-1594) (UniProt Q8TDY2 1286-1594); assay: SEC
[8] = biological target: TAX1BP1(1-237)/RB1CC1(1286-1594) complex (Trx-TAX1BP1(1-237) with Nano-RB1CC1(1286-1594)) (UniProt Q86VP1 1-237; Q8TDY2 1286-1594); assay: SEC
[9] = biological target: T2, Trx-TAX1BP1(1-237); assay: SEC
[10] = biological target: TAX1BP1(1-237)/RB1CC1(1286-1594) R1375A (UniProt Q86VP1 1-237; Q8TDY2 1286-1594, R1375A); assay: SEC
[11] = biological target: TAX1BP1(1-237)/NAP1(1-75)/RB1CC1(1286-1594) ternary complex (UniProt Q86VP1 1-237; Q9H6S1 1-75; Q8TDY2 1286-1594); assay: SEC
[12] = biological target: TAX1BP1(1-237)/RB1CC1(1286-1395) complex (UniProt Q86VP1 1-237; Q8TDY2 1286-1395); assay: SEC
[13] = biological target: the molecule itself; assay: crystal structure
[14] = biological target: B6; assay: ITC
[15] = biological target: GABARAPL1 (UniProt Q9H0R8 1-117); assay: ITC
[16] = biological target: GABARAPL2 (UniProt P60520 1-117); assay: SEC
Sequence of GABARAPL2 (P60520 whole entry): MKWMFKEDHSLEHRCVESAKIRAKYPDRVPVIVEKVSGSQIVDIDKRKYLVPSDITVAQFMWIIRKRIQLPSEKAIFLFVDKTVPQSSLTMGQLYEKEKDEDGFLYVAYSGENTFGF

T1 sequence (Q86VP1 1-237): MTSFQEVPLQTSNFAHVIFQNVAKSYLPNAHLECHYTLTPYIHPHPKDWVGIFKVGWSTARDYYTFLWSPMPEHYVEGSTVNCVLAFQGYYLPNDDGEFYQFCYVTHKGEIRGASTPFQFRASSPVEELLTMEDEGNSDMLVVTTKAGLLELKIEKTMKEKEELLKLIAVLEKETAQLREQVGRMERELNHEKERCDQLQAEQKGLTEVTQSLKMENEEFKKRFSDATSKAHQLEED
T2 sequence (Q86VP1 1-237): as above
Sequence of TAX1BP1(1-121) (Q86VP1 1-121): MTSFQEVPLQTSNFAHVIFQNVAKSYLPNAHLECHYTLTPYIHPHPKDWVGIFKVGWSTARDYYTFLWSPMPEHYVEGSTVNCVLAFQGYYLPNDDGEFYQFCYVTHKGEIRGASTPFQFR
Sequence of TAX1BP1(1-237)/RB1CC1(1286-1594) R1375A (Q86VP1 1-237, stated change not applied, one chain of several): as the sequence (Q86VP1 1-237) above
Sequence of TAX1BP1(1-237)/RB1CC1(1286-1594) complex (Trx-TAX1BP1(1-237) with Nano-RB1CC1(1286-1594)) (Q86VP1 1-237, one chain of several): as the sequence (Q86VP1 1-237) above
Sequence of TAX1BP1(1-237)/RB1CC1(1286-1395) complex (Q86VP1 1-237, one chain of several): as the sequence (Q86VP1 1-237) above
Sequence of TAX1BP1(1-237)/NAP1(1-75)/RB1CC1(1286-1594) ternary complex (Q86VP1 1-237, one chain of several): as the sequence (Q86VP1 1-237) above
Sequence of GABARAPL1 (Q9H0R8 whole entry): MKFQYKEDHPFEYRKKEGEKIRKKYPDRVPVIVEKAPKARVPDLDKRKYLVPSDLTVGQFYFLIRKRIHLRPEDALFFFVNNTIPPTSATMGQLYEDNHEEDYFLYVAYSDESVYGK

Kd [2]: ~4.91 µM | Kd [3]: ~1.13 µM
B1: RB1CC1(1286-1395) (domain or fragment, UniProt Q8TDY2 1286-1395, looked up)
chain: SLVAELQEKLQEEKAKFLEQLEEQEKRKNEEMQNVRTSLIAEQQTNFNTVLTREKMRKENIINDLSDKLKSTMQQQERDKDLIESLSEDRARLLEEKKKLEEEVSKLRSS
stoichiometry N [1]: 2

binding result [4]: binds
B2: RB1CC1(1396-1594) (domain or fragment, UniProt Q8TDY2 1396-1594, looked up)
chain: SFVPSPYVATAPELYGACAPELPGESDRSAVETADEGRVDSAMETSMMSVQENIHMLSEEKQRIMLLERTLQLKEEENKRLNQRLMSQSMSSVSSRHSEKIAIRDFQVGDLVLIILDERHDNYVLFTVSPTLYFLHSESLPALDLKPGEGASGASRRPWVLGKVMEKEYCQAKKAQNRFKVPLGTKFYRVKAVSWNKKV

Kd [3]: > 136 µM
B3: RB1CC1(1450-1594) (domain or fragment, UniProt Q8TDY2 1450-1594, looked up)
chain: HMLSEEKQRIMLLERTLQLKEEENKRLNQRLMSQSMSSVSSRHSEKIAIRDFQVGDLVLIILDERHDNYVLFTVSPTLYFLHSESLPALDLKPGEGASGASRRPWVLGKVMEKEYCQAKKAQNRFKVPLGTKFYRVKAVSWNKKV

binding result [5]: binds | binding result [6]: binds
Binder: ESVASHFALVTAYEDIKKRLKDSEKENSLLKKRIRFLEEKLIA (domain or fragment, UniProt Q9H6S1 33-75, looked up) [NAP1(33-75)]

binding result [7]: binds | binding result [8]: binds | binding result [9]: binds
B4: Trx-NAP1(1-75) (domain or fragment, UniProt Q9H6S1 1-75, looked up)
chain: MDALVEDDICILNHEKAHKRDTVTPVSIYSGDESVASHFALVTAYEDIKKRLKDSEKENSLLKKRIRFLEEKLIA

binding result [10]: binds
B5: NAP1(1-75) (domain or fragment, UniProt Q9H6S1 1-75, looked up)
chain: MDALVEDDICILNHEKAHKRDTVTPVSIYSGDESVASHFALVTAYEDIKKRLKDSEKENSLLKKRIRFLEEKLIA

Binder: B6
binding result [11]: binds | binding result [12]: binds | binding result [4]: binds

B7: RB1CC1(1343-1395) (domain or fragment, UniProt Q8TDY2 1343-1395, looked up)
chain: KENIINDLSDKLKSTMQQQERDKDLIESLSEDRARLLEEKKKLEEEVSKLRSS
stoichiometry N [13]: 2

binding result [14]: binds
Binder: EDEGNSDMLVVTTKAGLLE (domain or fragment, UniProt Q86VP1 133-151, looked up) [TAX1BP1(133-151)]

Kd [15]: 9.54 µM | Kd [14]: 4.07 µM | binding result [16]: binds
Binder: SSPVEELLTMEDEGNSDMLVVTTKAGLLE (domain or fragment, UniProt Q86VP1 123-151, looked up) [TAX1BP1(123-151)]
